Laboratory results: publication PMC1780049, “Functional analysis of Arabidopsis WRKY25 transcription factor in plant defense against Pseudomonas syringae”
Substitutions are numbered along the chain they refer to.

B1: Pchn5 (dsDNA)
DNA 1: GGAACTTGACCATCCGTTGACCGGGCTGCAGGAATTCG
DNA 2: CGAATTCCTGCAGCCCGGTCAACGGATGGTCAAGTTCC
B2: mPchn5 (dsDNA)
DNA 1: B1 DNA 1 with C10A, C21A
DNA 2: B1 DNA 2 with G18T, G29T

Target: T1, WRKY25 (Arabidopsis, UniProt O22921 1-393)
T1 sequence: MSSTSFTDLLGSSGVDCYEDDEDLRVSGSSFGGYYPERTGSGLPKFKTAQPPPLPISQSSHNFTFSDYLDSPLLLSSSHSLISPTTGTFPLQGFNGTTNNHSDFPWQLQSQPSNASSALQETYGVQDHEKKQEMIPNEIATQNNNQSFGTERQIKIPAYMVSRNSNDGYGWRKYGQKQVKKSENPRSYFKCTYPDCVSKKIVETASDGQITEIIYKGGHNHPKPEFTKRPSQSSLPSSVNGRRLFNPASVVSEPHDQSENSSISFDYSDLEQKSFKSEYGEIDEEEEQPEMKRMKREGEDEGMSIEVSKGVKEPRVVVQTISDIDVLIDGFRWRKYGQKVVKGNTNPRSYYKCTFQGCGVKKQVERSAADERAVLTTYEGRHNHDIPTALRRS
Test: EMSA; poly(dIdC) 5 ug; 12 ul nuclear extraction buffer (25 mM HEPES/KOH pH 7.5, 40 mM KCl, 0.1 mM EDTA, 10% glycerol, 1 mM DTT, PMSF), 5 ug poly(dIdC), 1 ug protein, 2 ng labelled dsDNA; room temperature 30 min; 10% PAGE in 0.5x TBE at 4 C
Settings: protein: recombinant, tags: His-tagged, pET32a (EcoRI/XhoI) vector fusion, (Klenow labelled, ~10^5 cpm/ng)

| Binder | binding result |
| --- | --- |
| B1 | binds |
| B2 | no binding |
